Results published in doi:10.1101/467431.

Biological target: Sca2 full-length passenger domain, construct Sca_(34-1515) (Rickettsia conorii) (UniProt Q92JF7)
Experiment: ITC

monomeric actin (LatB-actin) (from UniProt P68135 1-377) (natural protein)
KD1 (two-site binding model): 0.19 µM
KD2 (two-site binding model): 0.02 µM
N of the single site model (called unrealistic): 0.6
stoichiometry N (actin subunits per Sca (34-1515)): 2
